Source: publication PMC8121779

Biological target: LMW-E-T1 (low molecular weight form of cyclin E, T1), MMTV transgene in mouse salivary gland tumors

decrease of cyclin E-associated histone H1 kinase activity after 3 rounds of immunodepletion of CDK1 (90%), CDK2+/+ tumor lysate (sample 3085): 7%
decrease of cyclin E-associated histone H1 kinase activity after 3 rounds of immunodepletion of CDK1 (90%), CDK2-/- tumor lysate (sample 4111): 14%
Substance: CDK1 (endogenous in mouse salivary gland tumors) (from UniProt P11440 1-297) (enzyme)
